For one substance, redox state of CjDsbA2 (AMS labelling, Western blot) in E. coli JCB817 (ΔdsbA, with EcDsbB); in JCB818 (ΔdsbAΔdsbB) mostly in the reduced form (87%) (% oxidized form) results are on record in PMC8708908.

In this experiment the target is EcDsbB (Escherichia coli DsbB) (E. coli (endogenous in E. coli JCB817)) (UniProt P0A6M2).
Sequence of UniProt P0A6M2 (P0A6M2 whole entry): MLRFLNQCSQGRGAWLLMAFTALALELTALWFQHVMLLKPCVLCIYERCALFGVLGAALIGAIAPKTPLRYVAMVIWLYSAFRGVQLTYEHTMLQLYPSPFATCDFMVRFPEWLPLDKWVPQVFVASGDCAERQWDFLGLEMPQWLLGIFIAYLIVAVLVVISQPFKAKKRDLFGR

“CjDsbA2 made in E. coli with the E. coli pelB signal sequence (ss'pelB-cjdsbA2 in pMPM-A6, pUWM1523) (enzyme)” returned a redox state of CjDsbA2 (AMS labelling, Western blot) in E. coli JCB817 (ΔdsbA, with EcDsbB); in JCB818 (ΔdsbAΔdsbB) mostly in the reduced form (87%) (% oxidized form) of 33.
